Experiments:
Test in all cases: cell-based or functional assay
[1] = target: wild-type AAV1 capsid (adeno-associated virus type 1 (AAV1))
[2] = target: wild-type AAV8 capsid (adeno-associated virus type 8 (AAV8))
[3] = target: SM 10-2 variant AAV capsid (Adeno-associated virus 2 (isolate Srivastava/1982) (AAV-2)) (UniProt P03135)
[4] = target: AAV2 capsid variant γ4.3 (adeno-associated virus type 2 (AAV2)) (UniProt P03135)
[5] = target: wild-type AAV2 capsid (adeno-associated virus type 2 (AAV2)) (UniProt P03135)
[6] = target: SM 10-8 variant AAV capsid (Adeno-associated virus 2 (isolate Srivastava/1982) (AAV-2)) (UniProt P03135)
[7] = target: AAV2 capsid variant 1.45 (adeno-associated virus type 2 (AAV2)) (UniProt P03135)
[8] = target: SM 100-10 variant AAV capsid (Adeno-associated virus 2 (isolate Srivastava/1982) (AAV-2)) (UniProt P03135)
[9] = target: SM 100-3 variant AAV capsid (Adeno-associated virus 2 (isolate Srivastava/1982) (AAV-2)) (UniProt P03135)

## Gamimune N, 10% Human IVIG (Bayer, Elkhart Ind.)
[1]
  Fold Resistance Relative to AAV2: 1.76 fold
  Neutralizing IVIG concentration (IVIG required to reduce gene delivery efficiency to 50% of that in the absence of IVIG): 0.026 mg/mL
[2]
  Fold Resistance Relative to AAV2: 6.11 fold
  Neutralizing IVIG concentration (IVIG required to reduce gene delivery efficiency to 50% of that in the absence of IVIG): 0.092 mg/mL
[3]
  Fold Resistance Relative to AAV2: 7.52 fold
  Neutralizing IVIG concentration (IVIG required to reduce gene delivery efficiency to 50% of that in the absence of IVIG): 0.113 mg/mL
[4]
  fold enhanced resistance to pooled human IVIg compared to wild-type AAV2: 3.1 fold
[5]
  Fold Resistance Relative to AAV2: 1 fold
  Neutralizing IVIG concentration (IVIG required to reduce gene delivery efficiency to 50% of that in the absence of IVIG): 0.015 mg/mL
[6]
  Fold Resistance Relative to AAV2: 3.41 fold
  Neutralizing IVIG concentration (IVIG required to reduce gene delivery efficiency to 50% of that in the absence of IVIG): 0.051 mg/mL
[7]
  fold enhanced resistance to pooled human IVIg compared to wild-type AAV2: 1.23 fold
[8]
  Fold Resistance Relative to AAV2: 4.39 fold
  Neutralizing IVIG concentration (IVIG required to reduce gene delivery efficiency to 50% of that in the absence of IVIG): 0.066 mg/mL
[9]
  Fold Resistance Relative to AAV2: 4.94 fold
  Neutralizing IVIG concentration (IVIG required to reduce gene delivery efficiency to 50% of that in the absence of IVIG): 0.074 mg/mL

— patent US11807868
